According to PMC6935017 (Cell, 2018):

B1: Streptococcus thermophilus Csm2 (natural protein, Streptococcus thermophilus ND03, UniProt A0A0A7HIX1 1-121, looked up)
chain: MAILTDENYVDKAERAISLLEKDNKGNYLLTTSQIRKLLSLCSSLYDRSKERKFDELINDVSYLRVQFVYQAGREIAVKDLIEKAQILEALKEIKDRETLQRFCRYMEALVAYFKFYGGKD
B2: Streptococcus thermophilus Csm3 (natural protein, Streptococcus thermophilus ND03)
chain: MTFAKIKFSAQIRLETGLHIGGSDAFAAIGAIDSPVIKDPITNIPIIPGSSLKGKMRTLLAKVYNEKVAEKPSDDSDILSRLFGNSKDKRFKMGRLIFRDAFLSNADELDSLGVRSYTEVKFENTIDRITAEANPRQIERAIRNSTFDFELIYEITDENENQVEEDFKVIRDGLKLLELDYLGGSGSRGYGKVAFEKLKATTVFGNYDVKTLNELLTAEV

Molecular target: the molecule itself
Assay: crystal structure

Protein | stoichiometry N
B1 | 2
B2 | 3
